The experiment has as its target T1, human B7-H4 (purified monomeric recombinant human protein, ACRO biosystems) (human, UniProt Q7Z7D3 29-258, limits assumed, chemically biotinylated (EZ-Link NHS-LC-Biotin) in the yeast display and competition experiments; non-biotinylated in SPR).
T1 construct: Bought recombinant monomeric protein; also called B7x; B7S1
T1 sequence: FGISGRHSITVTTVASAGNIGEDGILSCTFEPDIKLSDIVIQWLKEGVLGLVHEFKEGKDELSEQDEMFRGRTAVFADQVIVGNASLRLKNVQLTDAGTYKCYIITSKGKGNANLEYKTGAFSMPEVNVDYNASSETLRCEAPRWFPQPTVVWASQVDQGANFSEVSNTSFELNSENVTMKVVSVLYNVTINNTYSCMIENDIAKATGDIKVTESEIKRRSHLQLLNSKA
Put plainly: SPR (Carterra LSA); scFv-Fc captured on anti-human IgG Fc, antigen injected. The protocol: Finally, the affinity of the 24 clones was determined using high-throughput surface plasmon resonance (SPR). The supernatants were arrayed by non-covalent capture in a medium-density SPR chip previously coupled with an anti-human polyclonal antibody and (at least 4 replicates per clone). Non-biotinylated antigen was used for all affinity measurements and sensorgrams were fitted using a pseudo-first-order kinetic model (Lundström 1994). […] In fact, it is notable that the off rates for some of the tested antibodies are probably better than 10⁻⁵ (Table 7), as indicated by the bunching of matured antibodies at that value (Table 7)—such slow off rates are challenging to accurately measure using SPR. No affinity difference was observed between clones coming from one combo library versus the other.
The scFv from the final population (round 3, combo libraries) was bulk cloned into a yeast expression vector containing a human IgG1 Fc region to be expressed in the scFv-Fc format. For this, the scFv region was amplified by PCR, digested with BssHII and NheI restriction enzyme (New England Biolabs), and cloned into the pDNL9 vector, 92 clones were analyzed by Sanger sequencing and 24 of these plus the parental were expressed using S. cerevisiae strain YVH10 (ATCC MYA-4940). scFv-Fc fusions were expressed for 72 h at 20° C. in the presence of galactose. The Carterra LSA surface resonance system was used for the affinity measurements. Briefly, anti-Human IgG Fc (Southern Biotech, #2048-01) was covalently coupled to an HC30M chip following the manufacturer's protocols. Crude yeast supernatants containing the scFv-Fc fusions were arrayed on the chip.

The results in this text go back to US20240309095A1 (Incyte, published 2024).

A word on the Kd: it is the free concentration of one partner at which half of the binding sites on the other are occupied at equilibrium, for simple one-to-one binding. For orientation: koff means a measure of how fast the partners let go of each other. The term kon denotes a measure of how fast the partners come together.

B1: B07 scFv-Fc (scFv, V domains shown)
VH: EVQLVESGGGVVQPGRSLRLSCAASGFTFGDRAMNWVRQAPGKGLEWVSAISGSGATTYYADSVKGRFTISRDNSKNTLYLQMNSLRAEDTAVYYCARKRWYGMDVWGQGTTVTVSS
VL: SYELTQPPSVSVAPGKTARITCGGNNIGSKSVHWYQQKPGQAPVLVVYDDSDRPSGIPERFSGSNSGNTATLTISRVEAGDEADYYCQVWDRGMIFGTGTKLTVL
notes: Tested as scFv-Fc fusion (human IgG1 Fc, vector pDNL9) in crude yeast supernatant; Combo 2 library
With B1, the KD fold-improvement amounted to 138 fold over parental, the Kd was 0.054 nM, the koff amounted to 1.8e-05 s⁻¹ and the kon turned out to be 330000 M⁻¹ s⁻¹.

B2: A01 scFv-Fc (scFv, V domains shown)
VH: EVQLVESGGGVVQPGRSLRLSCAASGFTFSNKAMNWVRQAPGKGLEWVSAISGSGATTYYADSVKGRFTISRDNSKNTLYLQMNSLRAEDTAVYYCARKRWYGMDVWGQGTTVTVSS
VL: SYELTQPPSVSVAPGKTARITCGGNNIGSKSVHWYQQKPGQAPVLVVYDDSDRPSGIPERFSGSNSGNTATLTISRVEAGDEADYYCQVWDRGMIFGTGTKLTVL
notes: Tested as scFv-Fc fusion (human IgG1 Fc, vector pDNL9) in crude yeast supernatant; Combo 1 library
As to B2, the KD fold-improvement was 33 fold over parental, the Kd stood at 0.224 nM, the koff amounted to 3.7e-05 s⁻¹ and the kon worked out at 170000 M⁻¹ s⁻¹.

B3: A04 scFv-Fc (scFv, V domains shown)
VH: EVQLVESGGGVVQPGRSLRLSCAASGFTFSSRSMNWVRQAPGKGLEWVSAISGSGDTTYYADSVKGRFTISRDNSKNTLYLQMNSLRAEDTAVYYCARKRWYGMDVWGQGTTVTVSS
VL: SYELTQPPSVSVAPGKTARITCGGNNIGSKSVHWYQQKPGQAPVLVVYDDSDRPSGIPERFSGSNSGNTATLTISRVEAGDEADYYCQVWDRGMIFGTGTKLTVL
notes: as for B2
As for B3, the KD fold-improvement stood at 108 fold over parental, the Kd came to 0.069 nM, the koff came to 2.1e-05 s⁻¹ and the kon was 310000 M⁻¹ s⁻¹.

B4: A05 scFv-Fc (scFv, V domains shown)
VH: EVQLVESGGGVVQPGRSLRLSCAASGFTYSSRAMNWVRQAPGKGLEWVSAISGSGSNAYYADSVKGRFTISRDNSKNTLYLQMNSLRAEDTAVYYCARKRWYGMDVWGQGTTVTVSS
VL: SYELTQPPSVSVAPGKTARITCGGNNIGSKSVHWYQQKPGQAPVLVVYDDSDRPSGIPERFSGSNSGNTATLTISRVEAGDEADYYCQVWDRGMIFGTGTKLTVL
notes: as for B2
In the case of B4, the KD fold-improvement was 63 fold over parental, the dissociation constant (Kd) amounted to 0.117 nM, the koff stood at 2.2e-05 s⁻¹ and the kon stood at 190000 M⁻¹ s⁻¹.

B5: B03 scFv-Fc (scFv, V domains shown)
VH: EVQLVESGGGVVQPGRSLRLSCAASGFTFGDRAMNWVRQAPGKGLEWVSAISGSGSGTYYADSVKGRFTISRDNSKNTLYLQMNSLRAEDTAVYYCARKRWYGMDVWGQGTTVTVSS
VL: SYELTQPPSVSVAPGKTARITCGGNNIGMKSVHWYQQKPGQAPVLVVYDDSDRPSGIPERFSGSNSGNTATLTISRVEAGDEADYYCQVWDRGMIFGTGTKLTVL
notes: as for B2
On to B5, for which the KD fold-improvement amounted to 106 fold over parental, the Kd was 0.07 nM, the koff is 2.1e-05 s⁻¹ and the kon is 300000 M⁻¹ s⁻¹.

B6: B04 scFv-Fc (scFv, V domains shown)
VH: EVQLVESGGGVVQPGRSLRLSCAASGFSFSSRAMNWVRQAPGKGLEWVSAVSGSGSGTYYADSVKGRFTISRDNSKNTLYLQMNSLRAEDTAVYYCARKRWYGMDVWGQGTTVTVSS
VL: SYELTQPPSVSVAPGKTARITCGGNNIGLKSVHWYQQKPGQAPVLVVYDDSDRPSGIPERFSGSNSGNTATLTISRVEAGDEADYYCQVWDRGMIFGTGTKLTVL
notes: as for B2
Regarding B6, the KD fold-improvement turned out to be 43 fold over parental, the Kd stood at 0.172 nM, the koff amounted to 2.7e-05 s⁻¹ and the kon is 160000 M⁻¹ s⁻¹.

B7: A08 scFv-Fc (scFv, V domains shown)
VH: EVQLVESGGGVVQPGRSLRLSCAASGFTFGDRAMNWVRQAPGKGLEWVSAISSSGTTSYYADSVKGRFTISRDNSKNTLYLQMNSLRAEDTAVYYCARKRWYGMDVWGQGTTVTVSS
VL: SYELTQPPSVSVAPGKTARITCGGNNIGSKSVHWYQQKPGQAPVLVVYDDSDRPSGIPERFSGSNSGNTATLTISRVEAGDEADYYCQVWDRGMIFGTGTKLTVL
notes: as for B1
Turning to B7, the KD fold-improvement amounted to 172 fold over parental, the Kd came out at 0.043 nM, the koff was found to be 1.3e-05 s⁻¹ and the kon was found to be 310000 M⁻¹ s⁻¹.

B8: A11 scFv-Fc (scFv, V domains shown)
VH: EVQLVESGGGVVQPGRSLRLSCAASGFTFSSRSMNWVRQAPGKGLEWVSAISGSGSTVYYADSVKGRFTISRDNSKNTLYLQMNSLRAEDTAVYYCARKRWYGMDVWGQGTTVTVSS
VL: SYELTQPPSVSVAPGKTARITCGGNNIGSKSVHWYQQKPGQAPVLVVYDDSDRPSGIPERFSGSNSGNTATLTISRVEAGDEADYYCQVWDRGMIFGTGTKLTVL
notes: as for B1
B8: the KD fold-improvement worked out at 123 fold over parental, the Kd is 0.06 nM, the koff was 1.1e-05 s⁻¹ and the kon was found to be 190000 M⁻¹ s⁻¹.

B9: A02 scFv-Fc (scFv, V domains shown)
VH: EVQLVESGGGVVQPGRSLRLSCAASGFTFTSRAMNWVRQAPGKGLEWVSAISYEGRTQYYADSVKGRFTISRDNSKNTLYLQMNSLRAEDTAVYYCARKRWYGMDVWGQGTTVTVSS
VL: SYELTQPPSVSVAPGKTARITCGGNNIGSKSVHWYQQKPGQAPVLVVYDDSDRPSGIPERFSGSNSGNTATLTISRVEAGDEADYYCQVWDRGMIFGTGTKLTVL
notes: as for B2
Consider B9, for which the KD fold-improvement was 188 fold over parental, the Kd amounted to 0.039 nM, the koff is 1.1e-05 s⁻¹ and the kon worked out at 280000 M⁻¹ s⁻¹.

B10: B06 scFv-Fc (scFv, V domains shown)
VH: EVQLVESGGGVVQPGRSLRLSCAASGFTFSNKAMNWVRQAPGKGLEWVSAISGSGATTYYADSVKGRFTISRDNSKNTLYLQMNSLRAEDTAVYYCARKRWYGMDVWGQGTTVTVSS
VL: SYELTQPPSVSVAPGKTARITCGGNNIGVKAVHWYQQKPGQAPVLVVYDDSDRPSGIPERFSGSNSGNTATLTISRVEAGDEADYYCQVWDRGMIFGTGTKLTVL
notes: as for B2
Regarding B10, the KD fold-improvement was found to be 76 fold over parental, the Kd came out at 0.097 nM, the koff came to 1.7e-05 s⁻¹ and the kon is 170000 M⁻¹ s⁻¹.

B11: A10 scFv-Fc (scFv, V domains shown)
VH: EVQLVESGGGVVQPGRSLRLSCAASGFTFSSRSMNWVRQAPGKGLEWVSAISGTGYTTYYADSVKGRFTISRDNSKNTLYLQMNSLRAEDTAVYYCARKRWYGMDVWGQGTTVTVSS
VL: SYELTQPPSVSVAPGKTARITCGGNNIGSKSVHWYQQKPGQAPVLVVYDDSDRPSGIPERFSGSNSGNTATLTISRVEAGDEADYYCQVWDRGMIFGTGTKLTVL
notes: as for B1
For B11, the KD fold-improvement was 72 fold over parental, the Kd came out at 0.103 nM, the koff was 1.4e-05 s⁻¹ and the kon came out at 140000 M⁻¹ s⁻¹.

B12: A09 scFv-Fc (scFv, V domains shown)
VH: EVQLVESGGGVVQPGRSLRLSCAASGFTFSSRSMNWVRQAPGKGLEWVSAISGSGLTSYYADSVKGRFTISRDNSKNTLYLQMNSLRAEDTAVYYCARKRWYGMDVWGQGTTVTVSS
VL: SYELTQPPSVSVAPGKTARITCGGNNIGSKSVHWYQQKPGQAPVLVVYDDSDRPSGIPERFSGSNSGNTATLTISRVEAGDEADYYCQVWDRGMIFGTGTKLTVL
notes: as for B1
As for B12, the KD fold-improvement was 100 fold over parental, the Kd came out at 0.074 nM, the koff was 1.1e-05 s⁻¹ and the kon is 160000 M⁻¹ s⁻¹.
